According to patent publication US20230365662A1:
Values joined by “and” are separate entries in the source; they are usually repeats but may differ in a detail not shown here. Equal entries are not always repeated.

B1: KB001 mouse Fab FASEBA VH Y106M (Fab, V domains shown)
VH: EVQLKQSGPGLVAPSQSLSITCTVSGFSLSIYSVHWVRQPPGKGLEWLGMIWGGGSSDYNSALKSRLSISKDNSKSQVFLKMNSLQTDDTAMYYCARNGNFYAMDMWGQGTSVTVSS
VL: QIVLTQSPAIMSASLGERVTMTCTASSSVSSSFLHWYQQKPGSSPQLWIYSTSNLASGVPARFSGSGSGTSYSLTISSMEAEDAATYYCHQYHHSPYIYTFGGGTKLEIK
B2: KB001 mouse Fab FASEBA VH Y106S (Fab, V domains shown)
VH: EVQLKQSGPGLVAPSQSLSITCTVSGFSLSIYSVHWVRQPPGKGLEWLGMIWGGGSSDYNSALKSRLSISKDNSKSQVFLKMNSLQTDDTAMYYCARNGNFYAMDSWGQGTSVTVSS
VL: QIVLTQSPAIMSASLGERVTMTCTASSSVSSSFLHWYQQKPGSSPQLWIYSTSNLASGVPARFSGSGSGTSYSLTISSMEAEDAATYYCHQYHHSPYIYTFGGGTKLEIK
B3: KB001 mouse Fab FASEBA VH S28R (Fab, V domains shown)
VH: EVQLKQSGPGLVAPSQSLSITCTVSGFRLSIYSVHWVRQPPGKGLEWLGMIWGGGSSDYNSALKSRLSISKDNSKSQVFLKMNSLQTDDTAMYYCARNGNFYAMDYWGQGTSVTVSS
VL: QIVLTQSPAIMSASLGERVTMTCTASSSVSSSFLHWYQQKPGSSPQLWIYSTSNLASGVPARFSGSGSGTSYSLTISSMEAEDAATYYCHQYHHSPYIYTFGGGTKLEIK
B4: KB001 mouse Fab FASEBA VH Y106K (Fab, V domains shown)
VH: EVQLKQSGPGLVAPSQSLSITCTVSGFSLSIYSVHWVRQPPGKGLEWLGMIWGGGSSDYNSALKSRLSISKDNSKSQVFLKMNSLQTDDTAMYYCARNGNFYAMDKWGQGTSVTVSS
VL: QIVLTQSPAIMSASLGERVTMTCTASSSVSSSFLHWYQQKPGSSPQLWIYSTSNLASGVPARFSGSGSGTSYSLTISSMEAEDAATYYCHQYHHSPYIYTFGGGTKLEIK
B5: KB001 mouse Fab FASEBA VH G26N (Fab, V domains shown)
VH: EVQLKQSGPGLVAPSQSLSITCTVSNFSLSIYSVHWVRQPPGKGLEWLGMIWGGGSSDYNSALKSRLSISKDNSKSQVFLKMNSLQTDDTAMYYCARNGNFYAMDYWGQGTSVTVSS
VL: QIVLTQSPAIMSASLGERVTMTCTASSSVSSSFLHWYQQKPGSSPQLWIYSTSNLASGVPARFSGSGSGTSYSLTISSMEAEDAATYYCHQYHHSPYIYTFGGGTKLEIK
B6: KB001 mouse Fab FASEBA VH S28A (Fab, V domains shown)
VH: EVQLKQSGPGLVAPSQSLSITCTVSGFALSIYSVHWVRQPPGKGLEWLGMIWGGGSSDYNSALKSRLSISKDNSKSQVFLKMNSLQTDDTAMYYCARNGNFYAMDYWGQGTSVTVSS
VL: QIVLTQSPAIMSASLGERVTMTCTASSSVSSSFLHWYQQKPGSSPQLWIYSTSNLASGVPARFSGSGSGTSYSLTISSMEAEDAATYYCHQYHHSPYIYTFGGGTKLEIK
B7: KB001 mouse Fab FASEBA VH S28H (Fab, V domains shown)
VH: EVQLKQSGPGLVAPSQSLSITCTVSGFHLSIYSVHWVRQPPGKGLEWLGMIWGGGSSDYNSALKSRLSISKDNSKSQVFLKMNSLQTDDTAMYYCARNGNFYAMDYWGQGTSVTVSS
VL: QIVLTQSPAIMSASLGERVTMTCTASSSVSSSFLHWYQQKPGSSPQLWIYSTSNLASGVPARFSGSGSGTSYSLTISSMEAEDAATYYCHQYHHSPYIYTFGGGTKLEIK
B8: KB001 mouse Fab FASEBA VH S28L (Fab, V domains shown)
VH: EVQLKQSGPGLVAPSQSLSITCTVSGFLLSIYSVHWVRQPPGKGLEWLGMIWGGGSSDYNSALKSRLSISKDNSKSQVFLKMNSLQTDDTAMYYCARNGNFYAMDYWGQGTSVTVSS
VL: QIVLTQSPAIMSASLGERVTMTCTASSSVSSSFLHWYQQKPGSSPQLWIYSTSNLASGVPARFSGSGSGTSYSLTISSMEAEDAATYYCHQYHHSPYIYTFGGGTKLEIK
B9: KB001 mouse Fab FASEBA VH Y106F (Fab, V domains shown)
VH: EVQLKQSGPGLVAPSQSLSITCTVSGFSLSIYSVHWVRQPPGKGLEWLGMIWGGGSSDYNSALKSRLSISKDNSKSQVFLKMNSLQTDDTAMYYCARNGNFYAMDFWGQGTSVTVSS
VL: QIVLTQSPAIMSASLGERVTMTCTASSSVSSSFLHWYQQKPGSSPQLWIYSTSNLASGVPARFSGSGSGTSYSLTISSMEAEDAATYYCHQYHHSPYIYTFGGGTKLEIK
B10: KB001 mouse Fab FASEBA VH G26D (Fab, V domains shown)
VH: EVQLKQSGPGLVAPSQSLSITCTVSDFSLSIYSVHWVRQPPGKGLEWLGMIWGGGSSDYNSALKSRLSISKDNSKSQVFLKMNSLQTDDTAMYYCARNGNFYAMDYWGQGTSVTVSS
VL: QIVLTQSPAIMSASLGERVTMTCTASSSVSSSFLHWYQQKPGSSPQLWIYSTSNLASGVPARFSGSGSGTSYSLTISSMEAEDAATYYCHQYHHSPYIYTFGGGTKLEIK
B11: KB001 mouse Fab FASEBA VH Y106W (Fab, V domains shown)
VH: EVQLKQSGPGLVAPSQSLSITCTVSGFSLSIYSVHWVRQPPGKGLEWLGMIWGGGSSDYNSALKSRLSISKDNSKSQVFLKMNSLQTDDTAMYYCARNGNFYAMDWWGQGTSVTVSS
VL: QIVLTQSPAIMSASLGERVTMTCTASSSVSSSFLHWYQQKPGSSPQLWIYSTSNLASGVPARFSGSGSGTSYSLTISSMEAEDAATYYCHQYHHSPYIYTFGGGTKLEIK
B12: KB001 mouse Fab FASEBA VH S28N (Fab, V domains shown)
VH: EVQLKQSGPGLVAPSQSLSITCTVSGFNLSIYSVHWVRQPPGKGLEWLGMIWGGGSSDYNSALKSRLSISKDNSKSQVFLKMNSLQTDDTAMYYCARNGNFYAMDYWGQGTSVTVSS
VL: QIVLTQSPAIMSASLGERVTMTCTASSSVSSSFLHWYQQKPGSSPQLWIYSTSNLASGVPARFSGSGSGTSYSLTISSMEAEDAATYYCHQYHHSPYIYTFGGGTKLEIK
B13: KB001 mouse Fab FASEBA VH S28G (Fab, V domains shown)
VH: EVQLKQSGPGLVAPSQSLSITCTVSGFGLSIYSVHWVRQPPGKGLEWLGMIWGGGSSDYNSALKSRLSISKDNSKSQVFLKMNSLQTDDTAMYYCARNGNFYAMDYWGQGTSVTVSS
VL: QIVLTQSPAIMSASLGERVTMTCTASSSVSSSFLHWYQQKPGSSPQLWIYSTSNLASGVPARFSGSGSGTSYSLTISSMEAEDAATYYCHQYHHSPYIYTFGGGTKLEIK
B14: KB001 mouse Fab FASEBA VH Y106N (Fab, V domains shown)
VH: EVQLKQSGPGLVAPSQSLSITCTVSGFSLSIYSVHWVRQPPGKGLEWLGMIWGGGSSDYNSALKSRLSISKDNSKSQVFLKMNSLQTDDTAMYYCARNGNFYAMDNWGQGTSVTVSS
VL: QIVLTQSPAIMSASLGERVTMTCTASSSVSSSFLHWYQQKPGSSPQLWIYSTSNLASGVPARFSGSGSGTSYSLTISSMEAEDAATYYCHQYHHSPYIYTFGGGTKLEIK
B15: KB001 mouse Fab FASEBA VH Y106Q (Fab, V domains shown)
VH: EVQLKQSGPGLVAPSQSLSITCTVSGFSLSIYSVHWVRQPPGKGLEWLGMIWGGGSSDYNSALKSRLSISKDNSKSQVFLKMNSLQTDDTAMYYCARNGNFYAMDQWGQGTSVTVSS
VL: QIVLTQSPAIMSASLGERVTMTCTASSSVSSSFLHWYQQKPGSSPQLWIYSTSNLASGVPARFSGSGSGTSYSLTISSMEAEDAATYYCHQYHHSPYIYTFGGGTKLEIK

target: HRgpA-6H (Porphyromonas gingivalis) (UniProt P28784); experiment: ELISA on coated HRgpA-6H
UniProt P28784, sequence (P28784 228-991 limits assumed): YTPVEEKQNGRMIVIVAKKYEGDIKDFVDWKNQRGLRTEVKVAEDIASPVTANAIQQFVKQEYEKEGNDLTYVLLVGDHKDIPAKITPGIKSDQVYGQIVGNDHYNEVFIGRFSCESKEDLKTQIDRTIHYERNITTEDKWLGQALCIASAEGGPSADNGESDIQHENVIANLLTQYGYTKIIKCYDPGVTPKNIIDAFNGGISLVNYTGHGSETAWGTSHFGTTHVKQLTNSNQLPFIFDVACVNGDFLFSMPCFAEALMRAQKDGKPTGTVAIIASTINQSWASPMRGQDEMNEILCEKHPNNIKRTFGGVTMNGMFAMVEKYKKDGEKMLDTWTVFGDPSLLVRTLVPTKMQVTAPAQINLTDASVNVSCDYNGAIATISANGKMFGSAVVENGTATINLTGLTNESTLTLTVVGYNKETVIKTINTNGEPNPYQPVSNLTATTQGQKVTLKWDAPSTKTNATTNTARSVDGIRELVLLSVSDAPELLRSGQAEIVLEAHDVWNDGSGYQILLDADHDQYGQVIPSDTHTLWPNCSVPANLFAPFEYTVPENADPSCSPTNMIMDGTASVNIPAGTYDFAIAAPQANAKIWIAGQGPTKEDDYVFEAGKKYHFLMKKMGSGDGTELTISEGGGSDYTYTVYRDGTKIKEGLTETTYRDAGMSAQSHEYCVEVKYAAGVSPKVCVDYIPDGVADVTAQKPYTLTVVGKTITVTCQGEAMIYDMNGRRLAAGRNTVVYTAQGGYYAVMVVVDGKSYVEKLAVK

Binder	OD450nm	Ratio OD(Variant)/OD(WT)
B1	0.794 and 0.84	1.03 and 1.09
B2	0.852 and 0.849	1.11 and 1.1
B3	0.458	0.848
B4	0.807	1.05
B5	0.445	0.876
B6	0.488	0.904
B7	0.511 and 0.526	0.946 and 0.974
B8	0.435 and 0.468	0.806 and 0.867
B9	0.815 and 0.856	1.06 and 1.11
B10	0.47 and 0.481	0.925 and 0.947
B11	0.791 and 0.809 and 0.82	1.03 and 1.05 and 1.07
B12	0.53	0.981
B13	0.468 and 0.486	0.867 and 0.9
B14	0.792	1.03
B15	0.792	1.03
